Results as given in patent US20240417469A1 (CONCEPT TO MEDICINE BIOTECH, published 2024).

What was measured:
human CD3 protein = molecular target: T1, human CD3 protein (human, UniProt P07766 23-126; P04234 22-105); test: ELISA, plate-coated CD3;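 further: binding to plate-immobilized human CD3 protein, bound antibody detected with peroxidase-labelled anti-human IgG and TMB, read as absorbance at 450 nm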
T1 construct: ELISA coating protein; also called Human CD3D & CD3E Heterodimer Protein

[1] = molecular target: T2, recombinant CD3D&E protein (human CD3-his tag) (human, UniProt P04234 22-105; P07766 23-126, limits assumed); test: SPR Biacore, Ab captured on Protein A;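 further: humanized antibodies on a Protein A chip, human CD3-his analyte flowed over in serial dilutions for 3 min, dissociation tracked 120–360 s on a Biacore T200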
T2 construct: Analyte in Biacore; also called CD3D&E-His; CD3d&ε-His

[2] = molecular target: T3, human CD3 on cells (human PBMC; Jurkat TCR/CD3 NFAT reporter cells) (human, UniProt P07766 23-207; P04234 22-171; P09693 23-182); test: cell-based or functional assay
[3] = molecular target: T3, human CD3 on cells (human PBMC; Jurkat …); test: cell-based or functional assay; remark: listed apart in the source
Wherever Emax is given: unit not given here.

T3 sequence (P07766 23-207, chain 1 of 3): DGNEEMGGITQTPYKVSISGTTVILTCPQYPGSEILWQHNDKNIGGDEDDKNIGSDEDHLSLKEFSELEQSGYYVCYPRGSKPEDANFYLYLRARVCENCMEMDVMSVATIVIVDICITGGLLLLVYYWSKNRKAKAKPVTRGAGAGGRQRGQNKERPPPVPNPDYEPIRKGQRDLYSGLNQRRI
T3 sequence (P04234 22-171, chain 2 of 3): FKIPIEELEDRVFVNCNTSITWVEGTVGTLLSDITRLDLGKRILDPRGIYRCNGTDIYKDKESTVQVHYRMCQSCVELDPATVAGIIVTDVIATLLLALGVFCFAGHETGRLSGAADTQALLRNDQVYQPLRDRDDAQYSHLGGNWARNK
T3 sequence (P09693 23-182, chain 3 of 3): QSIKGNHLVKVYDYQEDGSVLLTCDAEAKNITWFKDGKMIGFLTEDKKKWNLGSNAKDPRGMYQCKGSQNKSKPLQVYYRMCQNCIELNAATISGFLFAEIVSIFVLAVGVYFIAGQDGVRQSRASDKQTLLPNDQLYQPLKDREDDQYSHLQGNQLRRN
T2 sequence (P04234 22-105 limits assumed, chain 1 of 2): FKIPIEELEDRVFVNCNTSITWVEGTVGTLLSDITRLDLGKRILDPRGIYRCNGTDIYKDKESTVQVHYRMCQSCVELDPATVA
T2 sequence (P07766 23-126 limits assumed, chain 2 of 2): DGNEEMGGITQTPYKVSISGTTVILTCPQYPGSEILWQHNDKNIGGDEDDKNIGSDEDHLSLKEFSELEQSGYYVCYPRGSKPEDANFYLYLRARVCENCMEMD
T1 sequence (P07766 23-126 limits assumed, chain 1 of 2): as the sequence (P07766 23-126 limits assumed, chain 2 of 2) above
T1 sequence (P04234 22-105 limits assumed, chain 2 of 2): as the sequence (P04234 22-105 limits assumed, chain 1 of 2) above

| Binder | EC50 (human CD3 protein) | Kd [1] | koff [1] | kon [1] | CD3-NFAT Activity by CD3 mAb [2] | % of SP34 [3] | Emax [3] |
| --- | --- | --- | --- | --- | --- | --- | --- |
| Hu153A6B1-9 (antibody, V domains shown, humanized mAb) VH: EVQLQESGPGLVKPSETLSLTCTVSGGSISSYNIHWVRQPPGKGLEWMGRIRYNGDTSYNSALKSRLTISRDTSKNQFSLKLSSVTAADTAVYYCARGPYGGSREPLFDYWGQGTMVTVSS VL: DIQMTQSPSSLSASVGDRVTITCKTSQNINKYLNWFQQKPGKAPKLLIYTTNNLQTGIPSRFSGSGSGTDFTLTISSLQPEDFATYYCLQHGSGYTFGQGTKLEIK | 3.35 ng/mL | 61.7 nM | 0.0344 s⁻¹ | 558000 M⁻¹ s⁻¹ | > 50 % SP34 | 73.6% | 4310 |
| Hu153A6B1-1 (antibody, V domains shown, humanized mAb) VH: EVQLQESGPGLVKPSETLSLTCTVSGGSISSYNIHWIRQPPGKGLEWIGRIRYNGDTSYNSALKSRVTISVDTSKNQFSLKLSSVTAADTAVYYCARGPYGGSREPLFDYWGQGTMVTVSS VL: DIQMTQSPSSLSASVGDRVTITCKTSQNINKYLNWYQQKPGKAPKLLIYTTNNLQTGVPSRFSGSGSGTDFTLTISSLQPEDFATYYCLQHGSGYTFGQGTKLEIK | 16.3 ng/mL | 8.81 nM | 0.00391 s⁻¹ | 444000 M⁻¹ s⁻¹ | ≤ 50 % SP34 | 19.8% | 1160 |
| Hu153A6B1-2 (antibody, V domains shown, humanized mAb) VH: EVQLQESGPGLVKPSETLSLTCTVSGGSISSYNIHWVRQPPGKGLEWIGRIRYNGDTSYNSALKSRVTISRDTSKNQFSLKLSSVTAADTAVYYCARGPYGGSREPLFDYWGQGTMVTVSS VL: DIQMTQSPSSLSASVGDRVTITCKTSQNINKYLNWYQQKPGKAPKLLIYTTNNLQTGVPSRFSGSGSGTDFTLTISSLQPEDFATYYCLQHGSGYTFGQGTKLEIK | 3.39 ng/mL | 50 nM | 0.0201 s⁻¹ | 402000 M⁻¹ s⁻¹ | ≤ 50 % SP34 | 42.6% | 2500 |
| Hu153A6B1-3 (antibody, V domains shown, humanized mAb) VH: EVQLQESGPGLVKPSETLSLTCTVSGGSISSYNIHWVRQPPGKGLEWMGRIRYNGDTSYNSALKSRLTISRDTSKNQFSLKLSSVTAADTAVYYCARGPYGGSREPLFDYWGQGTMVTVSS VL: DIQMTQSPSSLSASVGDRVTITCKTSQNINKYLNWYQQKPGKAPKLLIYTTNNLQTGVPSRFSGSGSGTDFTLTISSLQPEDFATYYCLQHGSGYTFGQGTKLEIK | 3.87 ng/mL | 59.5 nM | 0.0241 s⁻¹ | 406000 M⁻¹ s⁻¹ | ≤ 50 % SP34 | 45.5% | 2660 |
| Hu153A6B1-4 (antibody, V domains shown, humanized mAb) VH: EVQLQESGPGLVKPSETLSLTCTVSGGSISSYNIHWVRQPPGKGLEWMGRIRYNGDTSYNSALKSRLTISRDTSKNQFSLKLSSVTAADTAVYYCTRGPYGGSREPLFDYWGQGTMVTVSS VL: DIQMTQSPSSLSASVGDRVTITCKTSQNINKYLNWYQQKPGKAPKLLIYTTNNLQTGVPSRFSGSGSGTDFTLTISSLQPEDFATYYCLQHGSGYTFGQGTKLEIK | 3.72 ng/mL | 58.5 nM | 0.0195 s⁻¹ | 334000 M⁻¹ s⁻¹ | ≤ 50 % SP34 | 44.1% | 2580 |
| Hu153A6B1-5 (antibody, V domains shown, humanized mAb) VH: EVQLQESGPGLVKPSETLSLTCTVSGFSISSYNIHWVRQPPGKGLEWMGRIRYNGDTSYNSALKSRLTISRDTSKNQVSLKLSSVTAADTAVYYCTRGPYGGSREPLFDYWGQGTMVTVSS VL: DIQMTQSPSSLSASVGDRVTITCKTSQNINKYLNWYQQKPGKAPKLLIYTTNNLQTGVPSRFSGSGSGTDFTLTISSLQPEDFATYYCLQHGSGYTFGQGTKLEIK | 3.23 ng/mL | 19.4 nM | 0.00177 s⁻¹ | 91300 M⁻¹ s⁻¹ | > 50 % SP34 | 78.5% | 4600 |
| Hu153A6B1-6 (antibody, V domains shown, humanized mAb) VH: EVQLQESGPGLVKPSETLSLTCTVSGFSLTSYNIHWVRQPPGKGLEWMGRIRYNGDTSYNSALKSRLTISRDTSKNQVSLKLSSVTAADTAVYYCTRGPYGGSREPLFDYWGQGTMVTVSS VL: DIQMTQSPSSLSASVGDRVTITCKTSQNINKYLNWYQQKPGKAPKLLIYTTNNLQTGVPSRFSGSGSGTDFTLTISSLQPEDFATYYCLQHGSGYTFGQGTKLEIK | 2.99 ng/mL | 21.1 nM | 0.00181 s⁻¹ | 85800 M⁻¹ s⁻¹ | > 50 % SP34 | 71.9% | 4210 |
| Hu153A6B1-7 (antibody, V domains shown, humanized mAb) VH: EVQLQESGPGLVKPSETLSLTCTVSGGSISSYNIHWIRQPPGKGLEWIGRIRYNGDTSYNSALKSRVTISVDTSKNQFSLKLSSVTAADTAVYYCARGPYGGSREPLFDYWGQGTMVTVSS VL: DIQMTQSPSSLSASVGDRVTITCKTSQNINKYLNWFQQKPGKAPKLLIYTTNNLQTGIPSRFSGSGSGTDFTLTISSLQPEDFATYYCLQHGSGYTFGQGTKLEIK | 6.78 ng/mL | 45.2 nM | 0.0142 s⁻¹ | 314000 M⁻¹ s⁻¹ | ≤ 50 % SP34 | 26.9% | 1580 |
| Hu153A6B1-8 (antibody, V domains shown, humanized mAb) VH: EVQLQESGPGLVKPSETLSLTCTVSGGSISSYNIHWVRQPPGKGLEWIGRIRYNGDTSYNSALKSRVTISRDTSKNQFSLKLSSVTAADTAVYYCARGPYGGSREPLFDYWGQGTMVTVSS VL: DIQMTQSPSSLSASVGDRVTITCKTSQNINKYLNWFQQKPGKAPKLLIYTTNNLQTGIPSRFSGSGSGTDFTLTISSLQPEDFATYYCLQHGSGYTFGQGTKLEIK | 2.95 ng/mL | 49 nM | 0.0396 s⁻¹ | 808000 M⁻¹ s⁻¹ | > 50 % SP34 | 70.5% | 4130 |
| Hu192A7B9-18 (antibody, V domains shown, humanized mAb) VH: EVQLQESGPGLVKPSETLSLTCTVSGFSLTSYNVHWVRQPPGKGLEWMGRMRYNGDTSYNSALKSRLTISRDTSKNQVSLKLSSVTAADTAVYYCTRGPRGGYYSALFDYWGQGTMVTVSS VL: DIQMTQSPSSLSASVGDRVTITCKASQNINRYLNWYQQKPGKAPKLLISIANSLQTGIPSRFSGSGSGTDFTLTISSLQPEDFATYYCLQHNSWYTFGQGTKLEIK | 8.83 ng/mL | 56 nM | 0.00317 s⁻¹ | 56500 M⁻¹ s⁻¹ | > 50 % SP34 | – | – |
| Hu192A7B9-19 (antibody, V domains shown, humanized mAb) VH: EVQLQESGPGLVKPSETLSLTCTVSGGSISSYNVHWIRQPPGKGLEWIGRMRYNGDTSYNSALKSRVTISVDTSKNQFSLKLSSVTAADTAVYYCARGPRGGYYSALFDYWGQGTMVTVSS VL: DIQMTQSPSSLSASVGDRVTITCKASQNINRYLNWYQQKPGKAPKVLISIANSLQTGIPSRFSGSGSGTDFTLTISSLQPEDFATYFCLQHNSWYTFGQGTKLEIK | 4.98 ng/mL | 34.5 nM | 0.00543 s⁻¹ | 157000 M⁻¹ s⁻¹ | > 50 % SP34 | – | – |
| Hu192A7B9-20 (antibody, V domains shown, humanized mAb) VH: EVQLQESGPGLVKPSETLSLTCTVSGGSISSYNVHWVRQPPGKGLEWIGRMRYNGDTSYNSALKSRVTISRDTSKNQFSLKLSSVTAADTAVYYCARGPRGGYYSALFDYWGQGTMVTVSS VL: DIQMTQSPSSLSASVGDRVTITCKASQNINRYLNWYQQKPGKAPKVLISIANSLQTGIPSRFSGSGSGTDFTLTISSLQPEDFATYFCLQHNSWYTFGQGTKLEIK | 5.15 ng/mL | 60.3 nM | 0.00561 s⁻¹ | 93100 M⁻¹ s⁻¹ | > 50 % SP34 | – | – |
| Hu192A7B9-21 (antibody, V domains shown, humanized mAb) VH: EVQLQESGPGLVKPSETLSLTCTVSGGSISSYNVHWVRQPPGKGLEWMGRMRYNGDTSYNSALKSRLTISRDTSKNQFSLKLSSVTAADTAVYYCARGPRGGYYSALFDYWGQGTMVTVSS VL: DIQMTQSPSSLSASVGDRVTITCKASQNINRYLNWYQQKPGKAPKVLISIANSLQTGIPSRFSGSGSGTDFTLTISSLQPEDFATYFCLQHNSWYTFGQGTKLEIK | 5.46 ng/mL | 55.1 nM | 0.00499 s⁻¹ | 90600 M⁻¹ s⁻¹ | > 50 % SP34 | – | – |
| Hu192A7B9-22 (antibody, V domains shown, humanized mAb) VH: EVQLQESGPGLVKPSETLSLTCTVSGGSISSYNVHWVRQPPGKGLEWMGRMRYNGDTSYNSALKSRLTISRDTSKNQFSLKLSSVTAADTAVYYCTRGPRGGYYSALFDYWGQGTMVTVSS VL: DIQMTQSPSSLSASVGDRVTITCKASQNINRYLNWYQQKPGKAPKVLISIANSLQTGIPSRFSGSGSGTDFTLTISSLQPEDFATYFCLQHNSWYTFGQGTKLEIK | 7.12 ng/mL | 55 nM | 0.00462 s⁻¹ | 83900 M⁻¹ s⁻¹ | > 50 % SP34 | – | – |
| Hu192A7B9-23 (antibody, V domains shown, humanized mAb) VH: EVQLQESGPGLVKPSETLSLTCTVSGFSISSYNVHWVRQPPGKGLEWMGRMRYNGDTSYNSALKSRLTISRDTSKNQVSLKLSSVTAADTAVYYCTRGPRGGYYSALFDYWGQGTMVTVSS VL: DIQMTQSPSSLSASVGDRVTITCKASQNINRYLNWYQQKPGKAPKVLISIANSLQTGIPSRFSGSGSGTDFTLTISSLQPEDFATYFCLQHNSWYTFGQGTKLEIK | 15.8 ng/mL | 12.3 nM | 0.000862 s⁻¹ | 70200 M⁻¹ s⁻¹ | > 50 % SP34 | – | – |
| Hu192A7B9-24 (antibody, V domains shown, humanized mAb) VH: EVQLQESGPGLVKPSETLSLTCTVSGFSLTSYNVHWVRQPPGKGLEWMGRMRYNGDTSYNSALKSRLTISRDTSKNQVSLKLSSVTAADTAVYYCTRGPRGGYYSALFDYWGQGTMVTVSS VL: DIQMTQSPSSLSASVGDRVTITCKASQNINRYLNWYQQKPGKAPKVLISIANSLQTGIPSRFSGSGSGTDFTLTISSLQPEDFATYFCLQHNSWYTFGQGTKLEIK | 20.2 ng/mL | 9.21 nM | 0.000594 s⁻¹ | 64500 M⁻¹ s⁻¹ | > 50 % SP34 | – | – |
